Here are results for eleven molecules from US20130227716A1 (University of Washington, published 2013).

Assay [1] addresses COI1/ASK1 complex (full-length Arabidopsis thaliana COI1 co-expressed with ASK1) (Arabidopsis thaliana) (UniProt Q39255). As to the kind of experiment: cell-based or functional assay.
The target of assay [2] is T1, COI1/ASK1 complex (full-length Arabidopsis thaliana COI1 co-expressed with ASK1) (Arabidopsis thaliana, UniProt Q39255 1-160).
T1 construct: mature; Purified from Hi5 insect cells; co-purifies with Ins(1,2,4,5,6)P5 cofactor; also called COI/ASK1; untreated COI1
T1 sequence 1: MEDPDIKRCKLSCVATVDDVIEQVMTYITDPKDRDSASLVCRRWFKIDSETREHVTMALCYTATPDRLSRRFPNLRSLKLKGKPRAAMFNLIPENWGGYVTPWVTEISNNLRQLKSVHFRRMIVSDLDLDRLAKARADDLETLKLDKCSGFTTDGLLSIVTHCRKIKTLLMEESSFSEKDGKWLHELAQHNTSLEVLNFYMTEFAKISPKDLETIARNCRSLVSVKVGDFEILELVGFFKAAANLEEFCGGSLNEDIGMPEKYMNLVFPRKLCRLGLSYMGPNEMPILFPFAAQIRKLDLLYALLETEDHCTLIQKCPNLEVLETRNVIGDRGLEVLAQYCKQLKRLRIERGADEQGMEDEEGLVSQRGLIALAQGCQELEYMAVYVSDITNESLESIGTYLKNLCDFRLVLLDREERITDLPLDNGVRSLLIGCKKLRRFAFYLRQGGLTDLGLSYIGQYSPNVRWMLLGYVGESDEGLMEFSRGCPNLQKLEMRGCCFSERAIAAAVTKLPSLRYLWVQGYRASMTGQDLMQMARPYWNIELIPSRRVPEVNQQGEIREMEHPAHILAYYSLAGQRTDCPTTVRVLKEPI
T1 sequence 2: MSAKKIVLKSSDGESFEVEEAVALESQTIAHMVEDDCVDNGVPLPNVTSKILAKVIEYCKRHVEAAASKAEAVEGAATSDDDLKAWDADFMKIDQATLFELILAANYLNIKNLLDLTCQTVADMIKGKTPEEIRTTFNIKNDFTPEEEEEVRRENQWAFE
Put plainly: 3H-coronatine radioligand binding with COI1/ASK1 and synthetic peptide.

Assay [3] deals with T1, COI1/ASK1 complex (full-length …). Put plainly: saturation radioligand binding (3H-coronatine) with COI1/ASK1 and the synthetic peptide.
The target in assay [4] is T2, Arabidopsis thaliana COI1 (Arabidopsis thaliana, UniProt O04197 1-592).
T2 construct: also called wild-type COI1
T2 sequence: T1 sequence 1
As to the kind of experiment: crystal structure.

For assay [5], the target named is T1, COI1/ASK1 complex (full-length …). Put plainly: cell-based or functional assay.

In the case of “full-length JAZ6 (from UniProt Q9C9E3 1-269)”, in assay [1], the KD of 3H-coronatine saturation binding to COI1/ASK1 in the presence of JAZ6 turned out to be 48 nM and the KD of 3H-coronatine saturation binding to the COI1/JAZ6 complex worked out at 68 nM.

B1: JAZ1 + 6 extension + PY motif (peptide)
peptide: ELPIARRASLHRFLEKRKDRVTSKAPY
notes: also called JAZ1-extension +5+PY; JAZ1 +5 extension with the six C-terminal residues added back on
Take B1: in assay [2], the binding result was “binds”.

On to LPIARRASLHRFLEKRKDRV [JAZ1 + 4 extension], for which the binding result in assay [2] was “binds”.

Consider QQHQVVERIARRASLHRFFAKRKDRV [JAZ6 + 10 extension], for which the binding result in assay [2] is given as “no binding”.

As for YQKASMKRSLHSFLQKRSLRI [JAZ7 + 5 extension], the binding result in assay [2] is reported as “no binding”.

As for VERIARRASLHRFLEKRKDRV [JAZ1 + 5 extension from JAZ6], the binding result in assay [2] is listed as “no binding”.

On to VERIARRASLHRFFAKRKDRV [JAZ6 + 5 extension], for which the binding result in assay [2] is “no binding”.

B2: JAZ1 + 5 extension (peptide)
peptide: ELPIARRASLHRFLEKRKDRV
notes: also called JAZ1 +5 extension peptide; JAZ1 degron +5 peptide
In assay [3], B2 registered a Kd of 108 nM.

B3: ASK1 (other, Arabidopsis thaliana, UniProt Q39255 1-160, looked up)
chain: T1 sequence 2
notes: mature
Take B3: the binding result in assay [4] was “binds”.

B4: full-length JAZ1 (other)
chain: MSSSMECSEFVGSRRFTGKKPSFSQTCSRLSQYLKENGSFGDLSLGMACKPDVNGTLGNSRQPTTTMSLFPCEASNMDSMVQDVKPTNLFPRQPSFSSSSSSLPKEDVLKMTQTTRSVKPESQTAPLTIFYAGQVIVFNDFSAEKAKEVINLASKGTANSLAKNQTDIRSNIATIANQVPHPRKTTTQEPIQSSPTPLTELPIARRASLHRFLEKRKDRVTSKAPYQLCDPAKASSNPQTTGNMSWLGLAAEI
Take B4: in assay [5], the “KD of 3H-coronatine saturation binding to COI1/ASK1 in the presence of JAZ1” value was found to be 68 nM and the “KD of 3H-coronatine saturation binding to the COI1/JAZ1 complex” value worked out at 48 nM.

Take AAAAARRASLHRFLEKRKDRV [JAZ1 + polyA extension]: the binding result in assay [2] was “no binding”.

In general, Kd refers to the free concentration of one partner at which half of the binding sites on the other are occupied at equilibrium, for simple one-to-one binding.
